Assay results reported in US20190338048A1.
“And” between values parts separate entries of the source, which are not always exact repeats. Equal values may be shown once. Read-outs that look alike come from different tables or passages of the source. Values belong to the substance of their own block, whether it stands above or below them.

What was measured:
[1] = molecular target: SGN-CD19a kappa light chain L2 with Q124E_Q160E_T180E (SMCA design 2826); assay: SMCA LC-MS
[2] = molecular target: SGN-CD19a kappa light chain L2 with Q124E_Q160E_T180E (SMCA design 2826); assay: SMCA: four chains co-expressed, protein A, LC-MS
[3] = molecular target: SGN-CD19a kappa light chain L2 with Q124E_Q160E_T180E (SMCA design 2826); assay: SMCA LC-MS; remark: listed apart in the source
[4] = molecular target: SGN-CD19a kappa light chain L2 with Q124E_Q160E_T180E (SMCA design 2826); assay: SMCA: four chains co-expressed, protein A, LC-MS; remark: listed apart in the source
[5] = molecular target: CR8071 lambda light chain (L1) with S180E, designs 2816 and 2827; assay: SMCA LC-MS, System C
[6] = molecular target: CR8071 lambda light chain (L1) with S180E, designs 2816 and 2827; assay: SMCA: co-expression
[7] = molecular target: SGN-CD19a kappa light chain (L2) with T178E_T180E, design 2830; assay: SMCA LC-MS, System B
[8] = molecular target: SGN-CD19a kappa light chain (L2) with T178E_T180E, design 2830; assay: SMCA: co-expression
[9] = molecular target: CR8071 lambda light chain L1 with E124R (SMCA design 2826); assay: SMCA LC-MS
[10] = molecular target: CR8071 lambda light chain L1 with E124R (SMCA design 2826); assay: SMCA: four chains co-expressed, protein A, LC-MS
[11] = molecular target: SGN-CD19a kappa light chain L2 with V133G_S176D (SMCA design 2188); assay: SMCA LC-MS
[12] = molecular target: SGN-CD19a kappa light chain L2 with V133G_S176D (SMCA design 2188); assay: SMCA: four chains co-expressed, protein A, LC-MS
[13] = molecular target: CR8071 lambda light chain (L1) with E124R, design 2826; assay: SMCA LC-MS, System C
[14] = molecular target: CR8071 lambda light chain (L1) with E124R, design 2826; assay: SMCA: co-expression
[15] = molecular target: SGN-CD19a kappa light chain L2, design 2188 (V133G_S176D); assay: SMCA, System C, LC-MS
[16] = molecular target: SGN-CD19a kappa light chain L2, design 2188 (V133G_S176D); assay: SMCA, System C
[17] = molecular target: SGN-CD19a kappa light chain L2, design 2816 (Q124R_Q160K_T178R); assay: SMCA, System C, LC-MS
[18] = molecular target: SGN-CD19a kappa light chain L2, design 2816 (Q124R_Q160K_T178R); assay: SMCA, System B, LC-MS
[19] = molecular target: SGN-CD19a kappa light chain L2, design 2816 (Q124R_Q160K_T178R); assay: SMCA, System B
[20] = molecular target: SGN-CD19a kappa light chain L2, design 2816 (Q124R_Q160K_T178R); assay: SMCA, System C
[21] = molecular target: SGN-CD19a kappa light chain L2 S121K_Q124R_T178R (design 3967, Systems B and C); assay: SMCA: H1, L1, H2, L2 co-expressed, protein A, LC-MS
[22] = molecular target: SGN-CD19a kappa light chain L2 S121K_Q124R_T178R (design 3967, Systems B and C); assay: as above; remark: listed apart in the source
[23] = molecular target: SGN-CD19a kappa light chain L2 S121K_Q124R_T178R (design 3967, Systems B and C); assay: as above; remark: listed apart in the source
[24] = molecular target: SGN-CD19a kappa light chain L2, design 2830 (T178E_T180E); assay: SMCA, System B, LC-MS
[25] = molecular target: SGN-CD19a kappa light chain L2, design 2830 (T178E_T180E); assay: SMCA, System B
[26] = molecular target: SGN-CD19a kappa light chain (L2) with Q124R_Q160K_T178R, design 2816; assay: SMCA LC-MS, System C
[27] = molecular target: SGN-CD19a kappa light chain (L2) with Q124R_Q160K_T178R, design 2816; assay: SMCA: co-expression
[28] = molecular target: SGN-CD19a kappa light chain L2, design 2827 (Q124K_T178R); assay: SMCA, System C, LC-MS
[29] = molecular target: SGN-CD19a kappa light chain L2, design 2827 (Q124K_T178R); assay: SMCA, System B, LC-MS
[30] = molecular target: SGN-CD19a kappa light chain L2, design 2827 (Q124K_T178R); assay: SMCA, System B
[31] = molecular target: SGN-CD19a kappa light chain L2, design 2827 (Q124K_T178R); assay: SMCA, System C
[32] = molecular target: CR8071 lambda light chain (L1) with S180E, designs 2816 and 2827; assay: SMCA: H1, L1, H2, L2 co-expressed in CHO-3E7
[33] = molecular target: CR8071 lambda light chain L1 with Q38E (SMCA design 34); assay: SMCA LC-MS
[34] = molecular target: CR8071 lambda light chain L1 with Q38E (SMCA design 34); assay: SMCA: four chains co-expressed, protein A, LC-MS
[35] = molecular target: SGN-CD19a kappa light chain (L2) with Q124E_Q160E_T180E, design 2826; assay: SMCA LC-MS, System B
[36] = molecular target: SGN-CD19a kappa light chain (L2) with Q124E_Q160E_T180E, design 2826; assay: SMCA LC-MS, System C
[37] = molecular target: SGN-CD19a kappa light chain (L2) with Q124E_Q160E_T180E, design 2826; assay: SMCA: co-expression
[38] = molecular target: SGN-CD19a kappa light chain (L2) with Q124K_T178R, design 2827; assay: SMCA LC-MS, System B
[39] = molecular target: SGN-CD19a kappa light chain (L2) with Q124K_T178R, design 2827; assay: SMCA LC-MS, System C
[40] = molecular target: CR8071 lambda light chain L1, design 2188 (V133G_S176R); assay: SMCA, System C, LC-MS
[41] = molecular target: CR8071 lambda light chain L1, design 2188 (V133G_S176R); assay: SMCA, System C

Change in % H2L2 Pairing with respect to wild type [1]: 35.5% | % H2L2 Pairing [2]: 89.7% | Change in % H2L2 Pairing with respect to wild type [3]: 26.7% | % H2L2 Pairing [4]: 98%
Substance: SGN-CD19a full-length heavy chain H2 with Q179K (SMCA design 2826)

Change in % H1L1 Pairing with respect to wild type [5]: 15.9% | % H1L1 Pairing [6]: 98.2%
Substance: CR8071 heavy chain (H1, lambda arm) with S186R, design 2827, full-length IgG1 with heterodimeric Fc

Change in % H2L2 Pairing with respect to wild type [7]: 44.3% | % H2L2 Pairing [8]: 98.5%
Substance: SGN-CD19a heavy chain (H2, kappa arm) with S186R, design 2830, full-length IgG1 with heterodimeric Fc

Change in % H1L1 Pairing with respect to wild type [9]: -40.3% | % H1L1 Pairing [10]: 27.8%
Substance: CR8071 full-length heavy chain H1 with L143E_K145T (SMCA design 2826)

Change in % H2L2 Pairing with respect to wild type [11]: 38.7% | % H2L2 Pairing [12]: 92.9%
Substance: SGN-CD19a full-length heavy chain H2 with L124R (SMCA design 2188)

Change in % H1L1 Pairing with respect to wild type [13]: -40.3% | % H1L1 Pairing [14]: 27.8%
Substance: CR8071 heavy chain (H1, lambda arm) with L143E_K145T, design 2826, full-length IgG1 with heterodimeric Fc

Change in % H2L2 Pairing with respect to wild type [15]: 19.9% | % H2L2 Pairing [16]: 99.5%
Substance: SGN-CD19a heavy chain H2, design 2188 (L124R)

Change in % H2L2 Pairing with respect to wild type [17]: 19.8% | Change in % H2L2 Pairing with respect to wild type [18]: -12.5% | % H2L2 Pairing [19]: 25.1% | % H2L2 Pairing [20]: 79.7%
Substance: SGN-CD19a heavy chain H2, design 2816 (L143E_K145T)

% H2L2 Pairing [21]: 100% | Change in % H2L2 Pairing with respect to wild type [21]: 28.7% | % H2L2 Pairing [22]: 98.6% | Change in % H2L2 Pairing with respect to wild type [23]: 44.4%
Substance: SGN-CD19a heavy chain H2 L143E_K145T_Q179E_K228D (design 3967, Systems B and C)

Change in % H2L2 Pairing with respect to wild type [24]: 44.3% | % H2L2 Pairing [25]: 98.5%
Substance: SGN-CD19a heavy chain H2, design 2830 (S186R)

Change in % H2L2 Pairing with respect to wild type [26]: 19.8% | % H2L2 Pairing [27]: 79.7%
Substance: SGN-CD19a heavy chain (H2, kappa arm) with L143E_K145T, design 2816, full-length IgG1 with heterodimeric Fc

Change in % H2L2 Pairing with respect to wild type [28]: 25.1% | Change in % H2L2 Pairing with respect to wild type [29]: -15.3% | % H2L2 Pairing [30]: 22.3% | % H2L2 Pairing [31]: 85%
Substance: SGN-CD19a heavy chain H2, design 2827 (L143E_K145T_Q179E)

% H1L1 Pairing [32]: 99.3% | Change in % H1L1 Pairing with respect to wild type [5]: 17%
Substance: CR8071 heavy chain (H1, lambda arm) with Q179K, design 2816, full-length IgG1 with heterodimeric Fc

Change in % H1L1 Pairing with respect to wild type [33]: 24.5% | % H1L1 Pairing [34]: 92.6%
Substance: CR8071 full-length heavy chain H1 with Q39R (SMCA design 34)

Change in % H2L2 Pairing with respect to wild type [35]: 35.5% | Change in % H2L2 Pairing with respect to wild type [36]: 26.7% | % H2L2 Pairing [37]: 89.7% and 98%
Substance: SGN-CD19a heavy chain (H2, kappa arm) with Q179K, design 2826, full-length IgG1 with heterodimeric Fc

Change in % H2L2 Pairing with respect to wild type [38]: -15.3% | Change in % H2L2 Pairing with respect to wild type [39]: 25.1%
Substance: SGN-CD19a heavy chain (H2, kappa arm) with L143E_K145T_Q179E, design 2827, full-length IgG1 with heterodimeric Fc

Change in % H1L1 Pairing with respect to wild type [40]: -23.5% | % H1L1 Pairing [41]: 24.9%
Substance: CR8071 heavy chain H1, design 2188 (L124E)
